Experimental data as given in patent publication US20200316211A1, “LOCALLY ACTING TOLL-LIKE RECEPTOR 7 (TLR7) AND/OR TLR8 AGONIST IMMUNOTHERAPY COMPOUNDS AND THEIR USES” (Altimmune UK Limited, priority 2019, published 2020).
Where a SMILES comes first, the peptide text is derived from it. Where no end group is shown, it is not given here. Side-chain parts run from the residue outwards. The star is where a group is joined. X1 = CCCCc1nc2c(N)nc3ccccc3c2n1Cc1ccc(CNC(=O)COCC(=O)*)cc1; Palmitoyl = CCCCCCCCCCCCCCCC(=O)*; PEG3 = NCCOCCOCCOCCC(=O)O; ADJ12 = not defined here

Key:
CT26 cells = assay: Antitumor activity after intratumoral injection, CT26 right flank model; type: in vivo, BALB/c mice; settings: 100 nmol/dose/animal intratumoral, day 1, 3, 5; FIG. 10
Experimental: (§1) Six to eight-week-old female BALB/c mice (Charles River) were injected subcutaneously with 2×10^5 CT26 cells on the right flank. When the tumors reached an average volume of ˜150 mm^3, mice were randomized into seven groups of eight mice per group, approximately 10 days (13 days) post tumor cell grafting, referred as day 0. After randomization, tumor size and body weight were assessed three times a week for the duration of the study. Animals were sacrificed according to the following humane endpoints: tumor volume ≥2000 mm^3, presence of necrotic or ulcerated tumor, impaired mobility including transient prostration or hunched posture, or interference with a vital physiological function. Treatments were initiated on day 1. All animals from group 1 to group 6 received three intratumoral injections of either formulated or non-formulated small molecule TLR7/8 agonists, or vehicle control, once every two days, on day 1, day 3 and day 5, in 50 μl delivery dose. Mice of group 7 were untreated. Animals from group 1 to group 4 were respectively treated with 100 nmol/dose/animal of kHL-12 or pHL-12 both prepared in 28 mM L-Histidine/Mannitol dilution buffer, or 3M-052 (MedChemExpress, teltralimod Cat. No.: HY-109104) prepared in ethanol/sesame oil (1:10), or R848 (Invivogen, R848 VacciGrade™, Cat. Code vac-r848) reconstituted in 28 mM L-Histidine/Mannitol dilution buffer. Mice from group 5 and group 6 received control vehicles in the delivery dose of 50 μl, 28 mM L-Histidine/Mannitol dilution buffer and ethanol/sesame oil (1:10), respectively.
(§2) Body weight was normalized by subtracting the weight of the tumor to the overall body weight.

[1] = Change in body weight in the CT26 study (systemic toxicity); type: in vivo, BALB/c mice; settings: 100 nmol/dose/animal intratumoral, day 1, 3, 5; body weight minus tumor weight; FIG. 11
Experimental: as §1, §2

[2] = intratumoral, very low doses (0.005 to 0.055 mg); cited from earlier work
[3] = poloxamer 407 thermogel formulation, intratumoral, animal models; cited from earlier work
[4] = Appearance (visual) and solubility (RP-HPLC of supernatant) in different buffer conditions; type: physicochemical; settings: for Solubility/appearance across buffer conditions: change in pH and/or presence of sodium chloride; for HPLC solubility: peak area vs same compound in 10% acetic acid
Experimental: The solubility of peptide conjugates KK-12, HH-12, AH-12 and HL-12 was determined by visual inspection of the solution and by RP-HPLC. Twenty (20) minutes after dispersion of the peptide conjugates in different buffer conditions, the solutions were centrifuged for 10 minutes and the supernatant analyzed by RP-HPLC. The peak area of each peptide conjugate was compared with the area of the same compound made fully soluble in 10% acetic acid. Appearance of the solution was evaluated visually according to the following criteria: clear, very slightly opalescent, slightly opalescent, opalescent or precipitated.

[5] = in more than half of the participants; cited from earlier work

Compound | Antitumoral activity (median tumor volume) (CT26 cells) | Impact on body weight over time [1] | Solubility/appearance across buffer conditions [4] | HPLC solubility ([4]; pH 5.2, NaCl 154 mM) | HPLC solubility ([4]; pH 5.2, no NaCl) | HPLC solubility ([4]; pH 7.5, NaCl 154 mM) | HPLC solubility ([4]; pH 7.5, no NaCl) | further results
CCCCCCCCCCCCCCCCCC(=O)NCCCCOn1c(CCCC)nc2c(N)nc3ccccc3c21 [3M-052] | comparable | pronounced loss in body weight |  |  |  |  |  | Clinical adverse events [2]: induction of adverse events related to cytokine release syndrome; Systemic release of the drug [3]: systemic release of the drug after administration of this formulation was still observed
CCCCc1nc2c(N)nc3ccccc3c2n1Cc1ccc(CNC(=O)COCC(=O)NCCOCCOCCOCCC(=O)NCCCC[C@H](NC(=O)[C@H](CC(C)C)NC(=O)[C@H](CCCNC(=N)N)NC(=O)[C@H](CCCNC(=N)N)NC(=O)[C@H](CC(C)C)NC(=O)[C@H](CC(C)C)NC(=O)[C@H](C)NC(=O)[C@H](C)NC(=O)[C@H](Cc2c[nH]cn2)NC(=O)[C@H](CC(C)C)NC(=O)[C@H](C)NC(=O)[C@H](CC(C)C)NC(=O)[C@H](Cc2c[nH]cn2)NC(=O)[C@H](C)NC(=O)[C@H](C)NC(=O)[C@H](CC(C)C)NC(=O)[C@H](CC(C)C)NC(=O)[C@H](CCCNC(=N)N)NC(=O)[C@H](CCCNC(=N)N)NC(C)=O)C(N)=O)cc1 [AH-12, Ac-RRLLAAHLALHAALLRRLK(ADJ12)-NH2] (Ac-RRLLAAHLALHAALLRRLK([PEG3-X1])-NH2) |  |  | change in appearance and/or HPLC solubility | >98% HPLC | >98% HPLC | 90% HPLC | >98% HPLC | 
CCCCOc1nc(N)c2[nH]c(=O)n(CCCN(CCCN3CCOCC3)Cc3cccc(CC(=O)OC)c3)c2n1 [AZD8848] |  |  |  |  |  |  |  | Clinical safety issues from systemic interferon signaling [5]: significant influenza-like symptoms
CCCCc1nc2c(N)nc3ccccc3c2n1Cc1ccc(CNC(=O)COCC(=O)NCCOCCOCCOCCC(=O)NCCCC[C@H](NC(=O)[C@H](CC(C)C)NC(=O)[C@H](CCCNC(=N)N)NC(=O)[C@H](CCCNC(=N)N)NC(=O)[C@H](CC(C)C)NC(=O)[C@H](CC(C)C)NC(=O)[C@H](Cc2c[nH]cn2)NC(=O)[C@H](C)NC(=O)[C@H](Cc2c[nH]cn2)NC(=O)[C@H](CC(C)C)NC(=O)[C@H](C)NC(=O)[C@H](CC(C)C)NC(=O)[C@H](Cc2c[nH]cn2)NC(=O)[C@H](C)NC(=O)[C@H](Cc2c[nH]cn2)NC(=O)[C@H](CC(C)C)NC(=O)[C@H](CC(C)C)NC(=O)[C@H](CCCNC(=N)N)NC(=O)[C@H](CCCNC(=N)N)NC(C)=O)C(N)=O)cc1 [HH-12, Ac-RRLLHAHLALHAHLLRRLK(ADJ12)-NH2] (Ac-RRLLHAHLALHAHLLRRLK([PEG3-X1])-NH2) |  |  | change in appearance and/or HPLC solubility | >98% HPLC | >98% HPLC | 55% HPLC | >98% HPLC | 
CCCCc1nc2c(N)nc3ccccc3c2n1Cc1ccc(CNC(=O)COCC(=O)NCCOCCOCCOCCC(=O)NCCCC[C@H](NC(=O)[C@H](CC(C)C)NC(=O)[C@H](CCCNC(=N)N)NC(=O)[C@H](CCCNC(=N)N)NC(=O)[C@H](CC(C)C)NC(=O)[C@H](CC(C)C)NC(=O)[C@H](Cc2c[nH]cn2)NC(=O)[C@H](C)NC(=O)[C@H](CC(C)C)NC(=O)[C@H](CC(C)C)NC(=O)[C@H](C)NC(=O)[C@H](CC(C)C)NC(=O)[C@H](CC(C)C)NC(=O)[C@H](C)NC(=O)[C@H](Cc2c[nH]cn2)NC(=O)[C@H](CC(C)C)NC(=O)[C@H](CC(C)C)NC(=O)[C@H](CCCNC(=N)N)NC(=O)[C@H](CCCNC(=N)N)NC(C)=O)C(N)=O)cc1 [HL-12, Ac-RRLLHALLALLAHLLRRLK(ADJ12)-NH2] (Ac-RRLLHALLALLAHLLRRLK([PEG3-X1])-NH2) |  |  | change in appearance and/or HPLC solubility | >98% HPLC | >98% HPLC | 0% HPLC | >98% HPLC | 
CCCCc1nc2c(N)nc3ccccc3c2n1Cc1ccc(CNC(=O)COCC(=O)NCCOCCOCCOCCC(=O)NCCCC[C@H](NC(=O)[C@H](CC(C)C)NC(=O)[C@H](CCCNC(=N)N)NC(=O)[C@H](CCCNC(=N)N)NC(=O)[C@H](CC(C)C)NC(=O)[C@H](CC(C)C)NC(=O)[C@H](CCCCN)NC(=O)[C@H](C)NC(=O)[C@H](CCCCN)NC(=O)[C@H](CC(C)C)NC(=O)[C@H](C)NC(=O)[C@H](CC(C)C)NC(=O)[C@H](CCCCN)NC(=O)[C@H](C)NC(=O)[C@H](CCCCN)NC(=O)[C@H](CC(C)C)NC(=O)[C@H](CC(C)C)NC(=O)[C@H](CCCNC(=N)N)NC(=O)[C@H](CCCNC(=N)N)NC(C)=O)C(N)=O)cc1 [KK-12, Ac-RRLLKAKLALKAKLLRRLK(ADJ12)-NH2] (Ac-RRLLKAKLALKAKLLRRLK([PEG3-X1])-NH2) |  |  | remains soluble | >98% HPLC | >98% HPLC | >98% HPLC | >98% HPLC | 
CCOCc1nc2c(N)nc3ccccc3c2n1CC(C)(C)O [R848, 1-(4-amino-2-(ethoxymethyl)-1H-imidazo[4,5-c]quinolin-1-yl)-2-methylpropan-2-ol] | comparable | pronounced loss in body weight |  |  |  |  |  | 
CCCCc1nc2c(N)nc3ccccc3c2n1Cc1ccc(CNC(=O)COCC(=O)NCCOCCOCCOCCC(=O)NCCCC[C@H](NC(=O)[C@H](CC(C)C)NC(=O)[C@H](CCCNC(=N)N)NC(=O)[C@H](CCCNC(=N)N)NC(=O)[C@H](CC(C)C)NC(=O)[C@H](CC(C)C)NC(=O)[C@H](Cc2c[nH]cn2)NC(=O)[C@H](C)NC(=O)[C@H](CC(C)C)NC(=O)[C@H](CC(C)C)NC(=O)[C@H](C)NC(=O)[C@H](CC(C)C)NC(=O)[C@H](CC(C)C)NC(=O)[C@H](C)NC(=O)[C@H](Cc2c[nH]cn2)NC(=O)[C@H](CC(C)C)NC(=O)[C@H](CC(C)C)NC(=O)[C@H](CCCNC(=N)N)NC(=O)[C@H](CCCNC(=N)N)NC(=O)[C@@H](N)CCCCNC(C)=O)C(N)=O)cc1 [kHL-12, K(Ac)—RRLLHALLALLAHLLRRLK(ADJ12)-NH2] (H-K(Ac)RRLLHALLALLAHLLRRLK([PEG3-X1])-NH2; N-terminus and C-terminus assumed) |  | limited impact on the body weight |  |  |  |  |  | 
K(Pam)-RRLLHALLALLAHLLRRLK(ADJ12)-NH2 (K(Palmitoyl)RRLLHALLALLAHLLRRLK(ADJ12)-NH2; reading uncertain; also: printed as K(Pam)-RRLLHALLALLAHLLRRLK(ADJ12)-NH2) [pHL-12] | lower level of antitumor activity |  |  |  |  |  |  | 
